From patent publication US20120316113A1, “FGF BASED FIBRIN BINDING PEPTIDES” (Baxter Healthcare S.A., priority 2011, published 2012)

Experiments:
[1] = molecular target: T1, fibrin clots (Homo sapiens, UniProt P02671+P02675+P02679); experiment: Stability of fibrin clots with aprotinin covalently bound through FS-anchors; assay type: biochemical; details: aprotinin EDC-coupled to the FS-anchor, clots kept in PBS at 37° C., after 5 days; compared with His-FGF-2 and pep1 anchors
T1 sequence (P02671 36-866 limits assumed): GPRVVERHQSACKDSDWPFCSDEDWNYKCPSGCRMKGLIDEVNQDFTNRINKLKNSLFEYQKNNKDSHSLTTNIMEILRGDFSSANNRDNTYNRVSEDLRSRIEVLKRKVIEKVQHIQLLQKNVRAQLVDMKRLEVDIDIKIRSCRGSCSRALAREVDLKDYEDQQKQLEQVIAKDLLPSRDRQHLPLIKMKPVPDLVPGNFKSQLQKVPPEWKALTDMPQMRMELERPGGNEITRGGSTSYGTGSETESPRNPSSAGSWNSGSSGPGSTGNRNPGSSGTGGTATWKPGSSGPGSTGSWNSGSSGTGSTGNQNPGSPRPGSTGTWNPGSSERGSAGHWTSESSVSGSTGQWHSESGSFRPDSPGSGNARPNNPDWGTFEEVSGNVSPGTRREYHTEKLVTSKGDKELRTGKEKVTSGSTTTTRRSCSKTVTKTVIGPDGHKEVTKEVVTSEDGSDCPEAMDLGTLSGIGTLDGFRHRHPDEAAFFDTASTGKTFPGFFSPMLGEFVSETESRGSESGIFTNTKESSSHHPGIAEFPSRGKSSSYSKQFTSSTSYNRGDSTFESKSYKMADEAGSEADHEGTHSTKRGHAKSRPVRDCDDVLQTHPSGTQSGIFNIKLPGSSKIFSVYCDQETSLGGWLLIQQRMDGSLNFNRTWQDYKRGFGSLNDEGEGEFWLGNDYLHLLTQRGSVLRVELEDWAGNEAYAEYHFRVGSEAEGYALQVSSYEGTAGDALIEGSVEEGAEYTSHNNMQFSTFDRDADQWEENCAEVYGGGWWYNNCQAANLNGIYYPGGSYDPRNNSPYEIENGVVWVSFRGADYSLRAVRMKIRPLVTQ
T1 sequence (P02675 45-491 limits assumed): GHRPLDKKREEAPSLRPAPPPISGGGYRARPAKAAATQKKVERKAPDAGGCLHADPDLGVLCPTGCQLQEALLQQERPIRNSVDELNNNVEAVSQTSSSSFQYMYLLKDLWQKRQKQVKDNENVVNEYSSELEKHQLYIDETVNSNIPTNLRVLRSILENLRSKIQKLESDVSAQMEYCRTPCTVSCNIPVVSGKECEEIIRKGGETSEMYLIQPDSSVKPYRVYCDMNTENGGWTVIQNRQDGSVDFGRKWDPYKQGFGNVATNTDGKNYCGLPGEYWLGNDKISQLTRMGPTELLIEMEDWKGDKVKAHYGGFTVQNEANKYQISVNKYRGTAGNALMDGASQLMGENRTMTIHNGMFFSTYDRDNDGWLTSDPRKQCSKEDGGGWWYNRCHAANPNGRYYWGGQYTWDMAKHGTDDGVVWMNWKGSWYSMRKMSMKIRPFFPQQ
T1 sequence (P02679 27-453): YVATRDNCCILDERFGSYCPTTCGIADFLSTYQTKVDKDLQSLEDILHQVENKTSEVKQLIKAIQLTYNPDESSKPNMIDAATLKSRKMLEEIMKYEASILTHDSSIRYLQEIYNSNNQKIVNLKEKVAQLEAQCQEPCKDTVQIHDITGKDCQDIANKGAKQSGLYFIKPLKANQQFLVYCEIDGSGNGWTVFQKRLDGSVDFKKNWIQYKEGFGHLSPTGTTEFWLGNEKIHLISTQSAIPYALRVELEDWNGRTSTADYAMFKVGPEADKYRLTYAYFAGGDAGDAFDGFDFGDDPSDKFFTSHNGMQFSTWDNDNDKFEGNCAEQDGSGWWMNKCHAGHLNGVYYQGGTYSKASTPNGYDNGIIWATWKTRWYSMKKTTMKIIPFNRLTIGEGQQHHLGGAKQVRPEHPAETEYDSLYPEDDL
From the text: Aprotinin was successfully covalently bound to one FS-anchor (His-FGF-2, pep1 (68 an), pep3 (37 aa) and pep4 (28 aa)) using a standard protocol for 1-ethyl-3-(3-dimethylaminopropyl)carbodiimide) (EDC) coupling (FIG. 8A). For a positive control recombinant human FGF-2 (ProSpec Tany, Israel) and for a negative control phosphate buffered saline (PBS) were used. Covalently linked to a FS-anchor and purified aprotinin was mixed with fibrinogen and finally with thrombin to form fibrin clots. These fibrin clots were kept in PBS at 37° C. to observe stability and degradation of fibrin.

[2] = molecular target: T2, fibrin (Homo sapiens, UniProt P02671+P02675+P02679); experiment: Fibrin binding assay by ELISA; details: fibrinogen-coated plate incubated with 10 I.U./ml thrombin, various concentrations
T2 construct: an activity for processing fibrinogen to fibrin, preferably a thrombin preparation; purchased Baxter AG, Vienna (Tisseel fibrinogen and Tisseel thrombin)
T2 sequence (P02671 36-866 limits assumed): T1 sequence (P02671 36-866 limits assumed)
T2 sequence (P02675 45-491 limits assumed): T1 sequence (P02675 45-491 limits assumed)
T2 sequence (P02679 27-453): T1 sequence (P02679 27-453)
Experimental: A polystyrene 96-well plate (Nunc® Maxisorp EUSA-plates) was coated with 1 mg/ml fibrinogen (Tisseel®, Baxter AG, Vienna) overnight at 4° C. and then blocked with blocking solution (PBS+1% BSA) for 2 hours at room temperature CRT). After washing three times with PBS, purified peptides were added in various dilutions to the plate and incubated for 1 hour at RT. After the three times washing with PBS, a monoclonal anti-His6-peroxidase antibody (Sigma-Aldrich, Vienna), diluted in PBS+0.1% Tween (Sigma-Aldrich, Vienna) was added and incubated for 1 hour at RT. Finally, the plate was washed three times with PBS again and wells were incubated with o-phenylenediaminehydrochlorid substrate. Absorbance was measured at 492 nm and 620 nm. For fibrin binding analysis, the plate was first coated with fibrinogen overnight at 4° C. and then incubated with 10 I.U./ml thrombin (Tisseel, Baxter AG, Vienna) for 30 minutes at 37° C. The following procedure was the same as described above. […] The signals were detected and recorded at the Reichert SR7000 Surface Plasmon Resonance Analytical Instrument (Reichert Analytical, NY, USA). […]

stability of fibrin clots [1]	binding affinity to fibrin [2]	Sequence
higher stability	–	KCVTDECFFFERLESNNYNTYRSRHHHHH (KCVTDECFFFERLESNNYNTYRSRHHHHH; synthetic peptide pep 4 (29 aa), peptide #4, pep4 with C-terminus 5x HIS-tag)
–	little binding affinity	FERLESNNYN TYRSRHHHHH (FERLESNNYNTYRSRHHHHH; synthetic peptide pep 5 (20 aa), peptide #5, pep5 with C-terminus 5x HIS-tag)
higher stability	–	EDGRLLASKCVTDECFFFERLESNNYNTYRSRHHHHH (EDGRLLASKCVTDECFFFERLESNNYNTYRSRHHHHH; synthetic peptide pep 3 (37 aa), peptide #3, pep3 with C-terminus 5x HIS-tag) [also expressed recombinantly]
